Values quoted from earlier work in article PMC2613885.

Molecular target: Robo1 (Homo sapiens) (UniProt Q9Y6N7)
Sequence (Q9Y6N7 26-897): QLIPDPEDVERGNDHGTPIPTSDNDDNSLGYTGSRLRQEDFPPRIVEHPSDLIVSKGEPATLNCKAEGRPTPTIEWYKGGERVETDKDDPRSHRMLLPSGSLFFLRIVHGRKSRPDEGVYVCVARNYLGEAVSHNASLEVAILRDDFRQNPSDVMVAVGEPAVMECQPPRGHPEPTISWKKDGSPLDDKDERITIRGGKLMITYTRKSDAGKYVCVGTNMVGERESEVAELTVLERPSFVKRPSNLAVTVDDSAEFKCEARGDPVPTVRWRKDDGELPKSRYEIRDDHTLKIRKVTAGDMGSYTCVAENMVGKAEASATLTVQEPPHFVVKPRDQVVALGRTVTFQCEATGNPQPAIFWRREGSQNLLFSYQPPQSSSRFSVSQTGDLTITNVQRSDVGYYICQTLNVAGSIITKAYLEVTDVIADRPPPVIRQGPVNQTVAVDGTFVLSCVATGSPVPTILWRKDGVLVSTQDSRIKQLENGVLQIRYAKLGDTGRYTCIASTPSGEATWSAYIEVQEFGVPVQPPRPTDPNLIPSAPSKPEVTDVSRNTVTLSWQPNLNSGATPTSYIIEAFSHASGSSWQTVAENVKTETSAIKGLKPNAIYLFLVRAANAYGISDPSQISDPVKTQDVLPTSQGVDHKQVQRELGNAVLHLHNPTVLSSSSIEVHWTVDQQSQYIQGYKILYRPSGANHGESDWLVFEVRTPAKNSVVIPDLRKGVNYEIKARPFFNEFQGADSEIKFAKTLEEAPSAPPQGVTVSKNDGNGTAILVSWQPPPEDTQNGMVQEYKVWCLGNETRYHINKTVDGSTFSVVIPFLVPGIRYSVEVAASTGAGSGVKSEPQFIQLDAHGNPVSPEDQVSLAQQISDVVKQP

Chain of Slit2 (O94813 31-1529): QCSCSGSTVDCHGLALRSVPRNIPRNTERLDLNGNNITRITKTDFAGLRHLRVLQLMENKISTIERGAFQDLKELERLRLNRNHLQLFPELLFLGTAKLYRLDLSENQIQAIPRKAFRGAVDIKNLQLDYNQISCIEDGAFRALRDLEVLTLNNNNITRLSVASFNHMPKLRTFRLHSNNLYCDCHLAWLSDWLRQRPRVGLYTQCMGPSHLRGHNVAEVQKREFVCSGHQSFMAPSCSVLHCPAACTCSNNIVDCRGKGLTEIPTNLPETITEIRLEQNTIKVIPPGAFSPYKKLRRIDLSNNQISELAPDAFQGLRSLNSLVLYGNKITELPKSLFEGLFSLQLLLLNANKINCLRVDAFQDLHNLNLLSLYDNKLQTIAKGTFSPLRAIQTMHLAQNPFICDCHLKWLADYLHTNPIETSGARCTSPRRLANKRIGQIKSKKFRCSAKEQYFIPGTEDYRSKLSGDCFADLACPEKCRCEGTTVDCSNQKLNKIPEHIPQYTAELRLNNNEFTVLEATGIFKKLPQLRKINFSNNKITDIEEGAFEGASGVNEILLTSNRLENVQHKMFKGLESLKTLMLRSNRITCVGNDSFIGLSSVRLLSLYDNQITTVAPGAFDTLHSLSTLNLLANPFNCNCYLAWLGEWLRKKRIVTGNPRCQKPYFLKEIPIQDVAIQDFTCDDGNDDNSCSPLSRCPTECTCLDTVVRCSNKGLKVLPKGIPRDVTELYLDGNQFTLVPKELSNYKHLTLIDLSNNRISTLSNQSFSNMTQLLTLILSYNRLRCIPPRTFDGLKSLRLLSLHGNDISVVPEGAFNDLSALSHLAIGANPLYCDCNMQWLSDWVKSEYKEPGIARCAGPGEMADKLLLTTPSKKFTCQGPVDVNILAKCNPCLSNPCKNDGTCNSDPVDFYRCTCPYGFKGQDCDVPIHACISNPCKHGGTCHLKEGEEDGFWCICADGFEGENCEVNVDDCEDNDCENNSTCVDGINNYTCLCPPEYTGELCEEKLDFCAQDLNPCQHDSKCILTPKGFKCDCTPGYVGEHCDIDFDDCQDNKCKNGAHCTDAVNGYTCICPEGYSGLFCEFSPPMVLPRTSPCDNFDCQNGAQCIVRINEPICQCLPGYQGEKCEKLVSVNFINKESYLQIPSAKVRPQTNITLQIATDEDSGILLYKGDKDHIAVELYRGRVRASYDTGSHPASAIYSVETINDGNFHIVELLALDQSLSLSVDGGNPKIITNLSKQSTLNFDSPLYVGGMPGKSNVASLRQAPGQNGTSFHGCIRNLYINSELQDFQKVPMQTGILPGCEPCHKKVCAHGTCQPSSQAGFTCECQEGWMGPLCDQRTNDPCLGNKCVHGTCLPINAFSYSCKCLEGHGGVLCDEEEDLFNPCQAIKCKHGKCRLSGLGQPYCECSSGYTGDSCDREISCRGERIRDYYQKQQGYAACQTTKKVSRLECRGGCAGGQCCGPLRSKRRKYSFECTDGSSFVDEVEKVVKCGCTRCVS

Kd: 9 nM
Substance: Slit2 (from UniProt O94813)
